The target of this data set is CMG helicase (Cdc45-MCM2-7-GINS) (human, UniProt P49736;P25205;P33991;P33992;Q14566;P33993;O75419;Q14691;Q9Y248;Q9BRX5;Q9BRT9 …). As to the kind of experiment: cryoEM structure (3.29 A); ATPgS 100 uM; 5 mM Mg acetate; ATPgS/Mg2+ at MCM6, 4, 7; ADP at MCM2, 3; MCM5 site empty; Buffer S: 25 mM Hepes pH 7.5, 50 mM KCl, 5 mM Mg acetate, 2 mM DTT, 100 uM ATPgS; 4 uM fork DNA applied to StrepTrap-bound CMG, eluted with 15 mM desthiobiotin; binding temperature not stated (stored overnight at 4 C). Conditions: protein: recombinant; tags: MCM4 N-terminal His8-TEV; Psf2 C-terminal TEV-2xStrepII; copies: 1;1;1;1;1;1;1;1;1;1;1; fork: 40 bp duplex, 30 nt 3' poly-dT tail (strand 1) and 30 nt 5' GC-rich tail (strand 2).

B1: fork DNA 70T/70GC (dsDNA)
DNA 1: CGTTTTACAACGTCGTGACTGGGCACTTGATCGGCCAACCTTTTTTTTTTTTTTTTTTTTTTTTTTTTTT
DNA 2: CAGGCAGGCAGGCAGGCAGGCAGGCAGGCAGGTTGGCCGATCAAGTGCCCAGTCACGACGTTGTAAAACG
On to B1, for which the binding result is on record as “binds”.
